For the assay, the target named is T1, human transferrin receptor-Fc tag standard (human, UniProt P02786 89-760, limits assumed).
T1 construct: Coated on the ELISA plate at 2 µg/ml; also called hTfR; not shown: Fc tag
Nature of the assay: ELISA, hTfR-Fc coated on plate; calculated from an expected saturation point, curve not saturated at 10000 nM.

T1 sequence (P02786 89-760 limits assumed): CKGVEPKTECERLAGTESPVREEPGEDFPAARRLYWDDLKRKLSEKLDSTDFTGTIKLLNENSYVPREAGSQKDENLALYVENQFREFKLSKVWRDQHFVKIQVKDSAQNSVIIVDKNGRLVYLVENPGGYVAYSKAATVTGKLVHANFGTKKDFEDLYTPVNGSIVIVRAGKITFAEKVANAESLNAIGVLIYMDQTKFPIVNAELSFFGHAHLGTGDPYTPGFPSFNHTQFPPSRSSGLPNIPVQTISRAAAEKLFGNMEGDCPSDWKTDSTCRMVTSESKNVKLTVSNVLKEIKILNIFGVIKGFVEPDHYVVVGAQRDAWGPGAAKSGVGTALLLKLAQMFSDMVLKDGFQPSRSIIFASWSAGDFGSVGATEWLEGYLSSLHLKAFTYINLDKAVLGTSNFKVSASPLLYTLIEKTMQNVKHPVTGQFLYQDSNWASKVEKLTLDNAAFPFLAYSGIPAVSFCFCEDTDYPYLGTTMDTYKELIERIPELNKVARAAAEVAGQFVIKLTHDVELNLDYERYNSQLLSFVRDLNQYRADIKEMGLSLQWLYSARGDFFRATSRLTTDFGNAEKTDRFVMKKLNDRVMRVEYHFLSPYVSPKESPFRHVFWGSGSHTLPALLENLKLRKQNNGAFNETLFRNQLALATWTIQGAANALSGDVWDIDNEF

B1: huHF_Mutant2-dual (other)
chain: MTTASTSQVRQNYHAASEAAINAQINLELYASYVYLSMSYYFDRDDVALKNFAKYFLHQSHEEREHAEKLMKLQNQRGGRIALADIQKPDCDDGGSYGSLYAFDIWESGLNAMECALHLEKNVNQSLLALHALATAKNDPHLCDFIETHYLNEQVKAIKELGDHVTNLRKMGAPESGLAEYLFDKHTLGDSDNESMPSFITLASLSTWEGYFDF
notes: Ferritin particle of 24 monomers
For B1, the equilibrium dissociation constant (Kd) is roughly 4.4 µM.

For orientation: Kd means the equilibrium constant for the complex coming apart.
